Results: patent US20220153847A1 (Chugai, published 2022)

Key:
[1] = molecular target: HLA-DQ2.5/33mer gliadin peptide on IHW9088 cells (human); assay: cell-based or functional assay
[2] = molecular target: DQ2.5/BC hordein peptide on IHW9023 cells (human); assay: cell-based or functional assay
[3] = molecular target: DQ2.5/gamma 1 gliadin peptide on IHW9023 cells (human); assay: cell-based or functional assay
[4] = molecular target: DQ2.5/alpha 1 gliadin peptide on IHW9023 cells (human); assay: cell-based or functional assay
[5] = molecular target: DQ2.5/omega 1 gliadin peptide on IHW9023 cells (human); assay: cell-based or functional assay
[6] = molecular target: DQ2.5/omega 2 gliadin peptide on IHW9023 cells (human); assay: cell-based or functional assay
[7] = molecular target: DQ2.5/alpha 1b gliadin peptide on IHW9023 cells (human); assay: cell-based or functional assay
[8] = molecular target: DQ2.5/alpha 2 gliadin peptide on IHW9023 cells (human); assay: cell-based or functional assay
[9] = molecular target: T1, HLA-DQ2.5 on HLA-DQ2.5-positive PBMC B cells (human, UniProt P01909 24-254; P01920 33-261); assay: FACS, PBMC B cells; IC17=0%, DQN0139bb//IC17=100%
T1 construct: whole, on cells; also called HLA-DQ2.5+ PBMC B cell
T1 MHC II alpha: not shown
T1 MHC II beta: not shown

[10] = molecular target: T2, HLA-DQ2.5/avenin 2 peptide complex on Ba/F3 cells (human); assay: FACS, Ba/F3 cells; IC17=0%, DQN0139bb//IC17=100%;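 further: flow cytometry binding of anti-HLA-DQ antibodies at 5 µg/mL, incubated 30 min at room temperature with Ba/F3 lines presenting HLA-DQ/peptide complexes; antibody tested at 5 microgram/mL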
T2 construct: whole, on cells; also called Ba/F3-HLA-DQ2.5/avenin 2

[11] = molecular target: T3, HLA-DQ2.2 on Ba/F3 cells (human, UniProt P01909 24-216, limits assumed); assay: FACS, Ba/F3 cells; IC17=0%, DQN0139bb//IC17=100%;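 further: flow cytometry binding of anti-HLA-DQ antibodies at 5 µg/mL, incubated 30 min at room temperature with Ba/F3 lines presenting HLA-DQ/peptide complexes; antibody tested at 5 microgram/mL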
T3 construct: whole, on cells; also called Ba/F3-HLA-DQ2.2
T3 MHC II alpha: not shown
T3 MHC II beta: not shown

[12] = molecular target: T4, HLA-DQ2.5/hordein 1 peptide complex on Ba/F3 cells (human); assay: FACS, Ba/F3 cells; IC17=0%, DQN0139bb//IC17=100%;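 further: flow cytometry binding of anti-HLA-DQ antibodies at 5 µg/mL, incubated 30 min at room temperature with Ba/F3 lines presenting HLA-DQ/peptide complexes; antibody tested at 5 microgram/mL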
T4 construct: whole, on cells; also called Ba/F3-HLA-DQ2.5/hordein 1

[13] = molecular target: T5, HLA-DQ2.5/gamma 2 gliadin peptide complex on Ba/F3 cells (human); assay: FACS, Ba/F3 cells; IC17=0%, DQN0139bb//IC17=100%;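 further: flow cytometry binding of anti-HLA-DQ antibodies at 5 µg/mL, incubated 30 min at room temperature with Ba/F3 lines presenting HLA-DQ/peptide complexes; antibody tested at 5 microgram/mL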
T5 construct: whole, on cells; also called Ba/F3-HLA-DQ2.5/gamma 2 gliadin; HLA-DQ2.5/g2 gliadin

[14] = molecular target: T6, HLA-DQ2.5/alpha 1 gliadin peptide complex on Ba/F3 cells (human); assay: FACS, Ba/F3 cells; IC17=0%, DQN0139bb//IC17=100%
T6 construct: whole, on cells; also called Ba/F3-HLA-DQ2.5/alpha 1 gliadin; HLA-DQ2.5/a1 gliadin

[15] = molecular target: T7, HLA-DQ2.5/BC hordein peptide complex on Ba/F3 cells (human); assay: FACS, Ba/F3 cells; IC17=0%, DQN0139bb//IC17=100%
T7 construct: whole, on cells; also called Ba/F3-HLA-DQ2.5/BC hordein

[16] = molecular target: T8, HLA-DQ2.5/gamma 1 gliadin peptide complex on Ba/F3 cells (human); assay: FACS, Ba/F3 cells; IC17=0%, DQN0139bb//IC17=100%
T8 construct: whole, on cells; also called Ba/F3-HLA-DQ2.5/gamma 1 gliadin; HLA-DQ2.5/g1 gliadin

[17] = molecular target: T9, HLA-DQ2.5/omega 1 gliadin peptide complex on Ba/F3 cells (human); assay: FACS, Ba/F3 cells; IC17=0%, DQN0139bb//IC17=100%
T9 construct: whole, on cells; also called Ba/F3-HLA-DQ2.5/omega 1 gliadin; HLA-DQ2.5/w1 gliadin

[18] = molecular target: T10, HLA-DQ2.5/hordein 2 peptide complex on Ba/F3 cells (human); assay: FACS, Ba/F3 cells; IC17=0%, DQN0139bb//IC17=100%
T10 construct: whole, on cells; also called Ba/F3-HLA-DQ2.5/hordein 2

[19] = molecular target: T11, HLA-DQ2.5/secalin 2 peptide complex on Ba/F3 cells (human); assay: FACS, Ba/F3 cells; IC17=0%, DQN0139bb//IC17=100%
T11 construct: whole, on cells; also called Ba/F3-HLA-DQ2.5/secalin 2

[20] = molecular target: T12, HLA-DQ2.5/avenin 1 peptide complex on Ba/F3 cells (human); assay: FACS, Ba/F3 cells; IC17=0%, DQN0139bb//IC17=100%
T12 construct: whole, on cells; also called Ba/F3-HLA-DQ2.5/avenin 1

[21] = molecular target: T13, HLA-DQ2.5/alpha 1b gliadin peptide complex on Ba/F3 cells (human); assay: FACS, Ba/F3 cells; IC17=0%, DQN0139bb//IC17=100%
T13 construct: whole, on cells; also called Ba/F3-HLA-DQ2.5/alpha 1b gliadin; HLA-DQ2.5/a1b gliadin

[22] = molecular target: T14, HLA-DQ2.5/alpha 2 gliadin peptide complex on Ba/F3 cells (human); assay: FACS, Ba/F3 cells; IC17=0%, DQN0139bb//IC17=100%
T14 construct: whole, on cells; also called Ba/F3-HLA-DQ2.5/alpha 2 gliadin; HLA-DQ2.5/a2 gliadin

[23] = molecular target: T15, HLA-DQ2.5/alpha 3 gliadin peptide complex on Ba/F3 cells (human); assay: FACS, Ba/F3 cells; IC17=0%, DQN0139bb//IC17=100%
T15 construct: whole, on cells; also called Ba/F3-HLA-DQ2.5/alpha 3 gliadin; HLA-DQ2.5/a3 gliadin

[24] = molecular target: T16, HLA-DQ2.5/26mer gliadin peptide complex on Ba/F3 cells (human); assay: FACS, Ba/F3 cells; IC17=0%, DQN0139bb//IC17=100%
T16 construct: whole, on cells; also called Ba/F3-HLA-DQ2.5/26mer gliadin

[25] = molecular target: T17, HLA-DQ2.5/secalin 1 peptide complex on Ba/F3 cells (human); assay: FACS, Ba/F3 cells; IC17=0%, DQN0139bb//IC17=100%
T17 construct: whole, on cells; also called Ba/F3-HLA-DQ2.5/secalin 1

[26] = molecular target: T18, HLA-DQ2.5/14mer 1 peptide complex on Ba/F3 cells (human); assay: FACS, Ba/F3 cells; IC17=0%, DQN0139bb//IC17=100%
T18 construct: whole, on cells; also called Ba/F3-HLA-DQ2.5/14mer 1

[27] = molecular target: T19, HLA-DQ2.5/omega 2 gliadin peptide complex on Ba/F3 cells (human); assay: FACS, Ba/F3 cells; IC17=0%, DQN0139bb//IC17=100%
T19 construct: whole, on cells; also called Ba/F3-HLA-DQ2.5/omega 2 gliadin; HLA-DQ2.5/w2 gliadin

[28] = molecular target: T20, HLA-DQ2.5/avenin 3 peptide complex on Ba/F3 cells (human); assay: FACS, Ba/F3 cells; IC17=0%, DQN0139bb//IC17=100%
T20 construct: whole, on cells; also called Ba/F3-HLA-DQ2.5/avenin 3

[29] = molecular target: T21, HLA-DQ2.5/gamma 4b gliadin peptide complex on Ba/F3 cells (human); assay: FACS, Ba/F3 cells; IC17=0%, DQN0139bb//IC17=100%
T21 construct: whole, on cells; also called Ba/F3-HLA-DQ2.5/gamma 4b gliadin; HLA-DQ2.5/g4b gliadin

B1: DQN0139bb//IC17 (bispecific antibody, human IgG1, kappa)
heavy 1: QSLEESGGRLVTPGTALTLTCTVSGFSLSSYAMGWVRQAPGKGLEYIGWTSPGDSAYYASWTKGRFTISRTSTTVELKITSPTTEDTATYFCARDAAYIGHWAFNLWGPGTLVTVSSASTKGPSVFPLAPSSKSTSGGTAALGCLVKDYFPEPVTVSWNSGALTSGVHTFPAVLQSSGLYSLSSVVTVPSSSLGTQTYICNVNHKPSNTKVDKRVEPKSCDKTHTCPPCPAPELRRGPSVFLFPPKPKDTLMISRTPEVTCVVVDVSHEDPEVKFNWYVDGVEVHNAKTKPREEQYNSTYRVVSVLTVLHQDWLNGKEYKCKVSNKALPAPIEKTISKAKGQPREPQVYTLPPSREEMTKNQVSLTCLVKGFYPSDIAVEWESNGQPENNYKTTPPYLDSDGSFFLYSKLTVDKSRWQQGNVFSCSVMHEALHNHYTQESLSLSP
light 1: DVVMTQTPASVSAPVGGTVTINCQASESIYSNLAWYQQKPGQPPKLLIYGASTLESGVPSRVKGSGYGTQFTLTISDLECADAATYYCQQYYGSSSTAFTFGGGTKVEIKRTVAAPSVFIFPPSDEQLKSGTASVVCLLNNFYPREAKVQWKVDNALQSGNSQESVTEQDSKDCTYSLSSTLTLSKADYEKHKVYACEVTHQGLSSPVTKSFNRGEC
heavy 2: QVQLQQSGPQLVRPGASVKISCKASGYSFTSYWMHWVNQRPGQGLEWIGMIDPSYSETRLNQKFKDKATLTVDKSSSTAYMQLSSPTSEDSAVYYCALYGNYFDYWGQGTTLTVSSASTKGPSVFPLAPSSKSTSGGTAALGCLVKDYFPEPVTVSWNSGALTSGVHTFPAVLQSSGLYSLSSVVTVPSSSLGTQTYICNVNHKPSNTKVDKRVEPKSCDKTHTCPPCPAPELRRGPSVFLFPPKPKDTLMISRTPEVTCVVVDVSHEDPEVKFNWYVDGVEVHNAKTKPREEQYNSTYRVVSVLTVLHQDWLNGKEYKCKVSNKALPAPIEKTISKAKGQPREPQVYTLPPSRKEMTKNQVSLTCLVKGFYPSDIAVEWESNGQPENNYKTTPPYLDSDGSFFLYSKLTVDKSRWQQGNVFSCSVMHEALHNHYTQKSLSLSP
light 2: DIQMTQSSSSFSVSLGDRVTITCKASEDIYNRLAWYQQKPGNAPRLLISGATSLETGVPSRFSGSGSGKDYTLSITSLQTEDVATYYCQQYWSTPYTFGGGTKLEVKRTVAAPSVFIFPPSDEQLKSGTASVVCLLNNFYPREAKVQWKVDNALQSGNSQESVTEQDSKDSTYSLSSTLTLSKADYEKHKVYACEVTHQGLSSPVTKSFNRGEC
In the case of B1, the “IC50 (read off the curve)” value [1] is reported as roughly 0.4 microgram/mL.

B2: DQN0344xx//DQN0429cc (bispecific antibody, human IgG1, kappa)
heavy 1: QSLEESGGGLVKPGGTLTLTCTASGFSFSSSYWMCWVRQAPGKGLEWVACVYGGSDTTYYASWTKGRFTISKGSSTTVALQVTSLTAADTATYFCARDPLNYYYYGELNLWGPGTLVTVSSASTKGPSVFPLAPSSKSTSGGTAALGCLVKDYFPEPVTVSWNSGALTSGVHTFPAVLQSSGLYSLSSVVTVPSSSLGTQTYICNVNHKPSNTKVDKRVEPKSCDKTHTCPPCPAPELRRGPSVFLFPPKPKDTLMISRTPEVTCVVVDVSHEDPEVKFNWYVDGVEVHNAKTKPREEQYNSTYRVVSVLTVLHQDWLNGKEYKCKVSNKALPAPIEKTISKAKGQPREPQVYTLPPSREEMTKNQVSLTCLVKGFYPSDIAVEWESNGQPENNYKTTPPYLDSDGSFFLYSKLTVDKSRWQQGNVFSCSVMHEALHNHYTQESLSLSP
light 1: AVVLTQTASPVSAAVGGTVTIRCQATENIYSGLAWYQQKPGQPPKVLIYYVSTLASGVPSRFKGSGSGTEYTLTISGVQCDDAATYYCQTYHDISNVTFGGGTKVEIKRTVAAPSVFIFPPSDEQLKSGTASVVCLLNNFYPREAKVQWKVDNALQSGNSQESVTEQDSKDCTYSLSSTLTLSKADYEKHKVYACEVTHQGLSSPVTKSFNRGEC
heavy 2: QEQLVESGGGLVQPEGSLTLTCTASGFSFSSSYYMCWVRQAPGKGLEWIGCIYTGSGSTDYATWVNGRFTISKTSSTTVTLQMTSLTVADTATYFCARDIGIDYNFWGPGTLVTVSSASTKGPSVFPLAPSSKSTSGGTAALGCLVKDYFPEPVTVSWNSGALTSGVHTFPAVLQSSGLYSLSSVVTVPSSSLGTQTYICNVNHKPSNTKVDKRVEPKSCDKTHTCPPCPAPELRRGPSVFLFPPKPKDTLMISRTPEVTCVVVDVSHEDPEVKFNWYVDGVEVHNAKTKPREEQYNSTYRVVSVLTVLHQDWLNGKEYKCKVSNKALPAPIEKTISKAKGQPREPQVYTLPPSRKEMTKNQVSLTCLVKGFYPSDIAVEWESNGQPENNYKTTPPYLDSDGSFFLYSKLTVDKSRWQQGNVFSCSVMHEALHNHYTQKSLSLSP
light 2: AFELTQTPSFVEARVGGTVTIKCQATQSISSYLNWYQQKPGQPPKLLIYYASTLASGVPSRFKGSGSGTEFTLTISGVECADAATYYCHYGISYVSFGGGTKVEIKRTVAAPSVFIFPPSDEQLKSGTASVVCLLNNFYPREAKVQWKVDNALQSGNSQESVTEQDSKDCTYSLSSTLTLSKADYEKHKVYACEVTHQGLSSPVTKSFNRGEC
With B2 the “IC50, Jurkat NFAT-Luc T cell activation” value [2] was 0.415 µg/mL, the “IC50, Jurkat NFAT-Luc T cell activation” value [3] was 0.0947 µg/mL and the “IC50, Jurkat NFAT-Luc T cell activation” value [4] was 0.0498 µg/mL. For the same binder, the “IC50, Jurkat NFAT-Luc T cell activation” value [5] was 0.0397 µg/mL, the “IC50, Jurkat NFAT-Luc T cell activation” value [6] was 0.0146 µg/mL and the “IC50, Jurkat NFAT-Luc T cell activation” value [7] was 0.171 µg/mL. For the same binder, the “IC50, Jurkat NFAT-Luc T cell activation” value [8] was 0.00196 µg/mL, the “% MFI” value [9] was 0.4% and the “% MFI” value [10] was 18.3%. The “% MFI” value [11] was 0.8%, the “% MFI” value [12] was 20.3% and the “% MFI” value [13] was 1.3%. The “% MFI” value [14] was 63.1%, the “% MFI” value [15] was 18.5% and the “% MFI” value [16] was 16.9%. The “% MFI” value [17] was 43%, the “% MFI” value [18] was 90% and the “% MFI” value [19] was 43.3%. The “% MFI” value [20] was 14.2%, the “% MFI” value [21] was 64.6% and the “% MFI” value [22] was 58.7%. For the same binder, the “% MFI” value [23] was 18%, the “% MFI” value [24] was 30.7% and the “% MFI” value [25] was 37.8%. For the same binder, the “% MFI” value [26] was 19.4%, the “% MFI” value [27] was 19.3% and the “% MFI” value [28] was 19.6%. For the same binder, the “% MFI” value [29] was 6.2%.
